T1: Human coxsackie-adenovirus receptor (CAR) expressed on CHO cells (human, UniProt P78310 20-365)
T1 construct: whole, on cells; also called hCAR; AdhCAR-transfected CHO cells
T1 sequence: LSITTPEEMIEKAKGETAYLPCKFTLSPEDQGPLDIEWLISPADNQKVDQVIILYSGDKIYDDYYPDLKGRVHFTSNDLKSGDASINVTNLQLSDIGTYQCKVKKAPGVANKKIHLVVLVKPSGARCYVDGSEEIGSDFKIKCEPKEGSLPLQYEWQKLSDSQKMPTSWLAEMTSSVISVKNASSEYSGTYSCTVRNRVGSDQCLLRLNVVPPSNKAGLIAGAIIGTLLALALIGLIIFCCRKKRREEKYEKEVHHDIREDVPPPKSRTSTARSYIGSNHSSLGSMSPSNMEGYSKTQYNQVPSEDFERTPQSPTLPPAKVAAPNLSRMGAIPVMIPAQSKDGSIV

B1: Chimeric Ad5/30 fiber (Ad5 tail, Ad30 shaft and knob) on virus Ad5GFPf30 (other)
chain: MKRARPSEDTFNPVYPYDTETGPPTVPFLTPPFVSPNGFQESPPGVLSLKLADPIAITNGDVSLKVGGGLTVEQDSGNLSVNPKAPLQVGTDKKLELALAPPFDVRDNKLAILVGDGLKVIDRSISDLPGLLNYLVVLTGKGIGNEELKNDDGSNKGVGLCVRIGEGGGLTFDDKGYLVAWNNKHDIRTIWTTLDPSPNCKIDIEKDSKLTLVLTKCGSQILANVSLIIVNGKFKILNNKTDPSLPKSFNIKLLFDQNGVLLENSNIEKQYLNFRSGDSILPEPYKNAIGFMPNLLAYAKATTDQSKIYARNTIYGNIYLDNQPYNPVVIKITFNNEADSAYSITFNYSWTKDYDNIPFDSTSFTFSYIAQE
notes: also called Ad5RSVeGFPf30; AdGFPf30
B2: Adenovirus type 30 (Ad30) fiber on wild-type Ad30 virus (other)
chain: MSKRLRVEDDFNPVYPYGYARNQNIPFLTPPFVSSDGFKNFPPGVLSLKLADPIAITNGDVSLKVGGGLTVEQDSGNLSVNPKAPLQVGTDKKLELALAPPFDVRDNKLAILVGDGLKVIDRSISDLPGLLNYLVVLTGKGIGNEELKNDDGSNKGVGLCVRIGEGGGLTFDDKGYLVAWNNKHDIRTIWTTLDPSPNCKIDIEKDSKLTLVLTKCGSQILANVSLIIVNGKFKILNNKTDPSLPKSFNIKLLFDQNGVLLENSNIEKQYLNFRSGDSILPEPYKNAIGFMPNLLAYAKATTDQSKIYARNTIYGNIYLDNQPYNPVVIKITFNNEADSAYSITFNYSWTKDYDNIPFDSTSFTFSYIAQE
notes: Tested as 3H-labelled wild-type Ad30 virions; also called Ad30 wildtype; Ad30 (VR-273)
B3: Adenovirus type 5 (Ad5) fiber, wild type (other)
chain: MKRARPSEDTFNPVYPYDTETGPPTVPFLTPPFVSPNGFQESPPGVLSLRLSEPLVTSNGMLALKMGNGLSLDEAGNLTSQNVTTVSPPLKKTKSNINLEISAPLTVTSEALTVAAAAPLMVAGNTLTMQSQAPLTVHDSKLSIATQGPLTVSEGKLALQTSGPLTTTDSSTLTITASPPLTTATGSLGIDLKEPIYTQNGKLGLKYGAPLHVTDDLNTLTVATGPGVTINNTSLQTKVTGALGFDSQGNMQLNVAGGLRIDSQNRRLILDVSYPFDAQNQLNLRLGQGPLFINSAHNLDINYNKGLYLFTASNNSKKLEVNLSTAKGLMFDATAIAINAGDGLEFGSPNAPNTNPLKTKIGHGLEFDSNKAMVPKLGTGLSFDSTGAITVGNKNNDKLTIWTTPAPSPNCRLNAEKDAKLTLVLTKCGSQILATVSVLAVKGSLAPISGTVQSAHLIIRFDENGVLLNNSFLDPEYWNFRNGDLTEGTAYTNAVGFMPNLSAYPKSHGKTAKSNIVSQVYLNGDKTKPVTLTITLNGTQETGDTTPSAYSMSFSWDWSGHNYINEIFATSSYTFSYIAQE
notes: also called Ad5GFP; Ad5RSVeGFP

Tests used:
[1] = biological target: T2, Soluble human transferrin receptor, purified extracellular domain (human, UniProt P02786 89-760); assay: phage display panning on immobilised hTfR extracellular domain, three rounds
T2 construct: extracellular domain; Gift material; also called hTfR; soluble hTfR
Description: Enzyme-linked immunosorbent assay (ELISA) plates were coated with soluble hTfR, and bound phage were eluted by a low-pH buffer. Eluted phage were amplified in E. coli K91 and subsequently screened again for binding to the immobilized hTfR. In separate experiments, bound phage were eluted with purified transferrin holoenzyme. Three rounds of screening-amplification were done for each type of elution.
Phage screening. Ten microliters of amplified nonapeptide phage library (a generous gift from Al Jesaitis, Montana State University) was screened against the purified extracellular domain of hTfR (kindly provided by Martin Lawrence, Harvard University) coated on 96-well microtiter plates in 100 μl of 0.05 M carbonate buffer (pH 9.6). In the first panning, hTfR was coated at 100 μg/ml. Subsequent pannings were done with decreasing concentrations of hTfR for increased stringency (10 and 1 μg/ml for the second and third pannings, respectively). Bound phage were eluted with low-acid buffer (0.1 M glycine, pH 2.2) or ligand (iron-loaded human transferrin; Sigma-Aldrich) in TBS buffer (50 mM Tris-Cl, pH 7.5; 150 mM NaCl). After three successive rounds of panning and amplification, clones were picked and sequenced as described elsewhere.

[2] = biological target: T1, Human coxsackie-adenovirus receptor …; assay: 3H-labelled virus binding to CHO cells with or without hCAR, 1 h on ice
[3] = biological target: T2, Soluble human transferrin receptor, …; assay: pull-down of fiber lysate with soluble hTfR on anti-hTfR antibody 128.1 beads, Western blot with 4D2.5
[4] = biological target: T1, Human coxsackie-adenovirus receptor …

T2 sequence (P02786 89-760): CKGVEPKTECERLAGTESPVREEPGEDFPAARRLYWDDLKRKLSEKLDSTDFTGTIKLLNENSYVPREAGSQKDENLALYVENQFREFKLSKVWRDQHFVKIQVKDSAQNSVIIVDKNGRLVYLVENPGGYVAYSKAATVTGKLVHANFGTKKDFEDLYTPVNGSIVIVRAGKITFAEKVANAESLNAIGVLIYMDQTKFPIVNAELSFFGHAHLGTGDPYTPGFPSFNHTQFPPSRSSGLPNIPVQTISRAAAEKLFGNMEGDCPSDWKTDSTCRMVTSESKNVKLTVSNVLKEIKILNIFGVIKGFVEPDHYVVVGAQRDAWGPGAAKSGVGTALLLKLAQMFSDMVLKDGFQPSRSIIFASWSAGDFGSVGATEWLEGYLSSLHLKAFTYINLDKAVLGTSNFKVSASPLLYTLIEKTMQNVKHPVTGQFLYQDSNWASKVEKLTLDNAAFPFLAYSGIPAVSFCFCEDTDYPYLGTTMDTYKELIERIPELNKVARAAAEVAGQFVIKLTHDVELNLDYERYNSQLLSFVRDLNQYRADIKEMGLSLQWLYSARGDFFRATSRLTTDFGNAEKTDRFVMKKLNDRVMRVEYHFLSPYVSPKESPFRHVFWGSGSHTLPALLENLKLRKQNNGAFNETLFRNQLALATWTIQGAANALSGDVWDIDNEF

| Binder | binding result [1] | binding result [2] | further results |
| --- | --- | --- | --- |
| KWKLHGHIK [Phage displaying peptide KWKLHGHIK] | binds |  |  |
| B1 |  | no binding |  |
| AIAKKHKWN [Phage displaying peptide AIAKKHKWN] | binds |  |  |
| B2 |  | no binding |  |
| B3 |  |  | binding result [3]: no binding; fold increase in bound particles with CAR expression [4]: 3.6 fold |
| GKGPKWMR [Phage displaying peptide GKGPKWMR] | binds |  |  |

Source: patent US20030133912A1 (published 2003)
